Experimental findings from article PMC4585211 are described below.

For test [1], the target named is LHCGR-delExon10 (human lutropin/choriogonadotropin receptor lacking the exon10-encoded segment), GFP fusion (human) (UniProt P22888).
Test [2] addresses LHCGR-Q303P/E305P (double proline mutant of the human lutropin/choriogonadotropin receptor), GFP fusion (human) (UniProt P22888).

Turning to “human lutropin (hLH) (from UniProt P01215 25-116; P01229 21-141) (ligand)”, the EC50 of cAMP accumulation (radioimmunoassay) in transiently transfected HEK 293 cells, stimulation with hLH for 1 h at 37°C; significantly right-shifted against wild type (0.13 IU/ml) in test [1] came out at 0.51 IU/ml. In test [2], this substance displayed an EC50 of cAMP accumulation (radioimmunoassay) in transiently transfected HEK 293 cells, stimulation with hLH for 1 h at 37°C; not significantly different from wild type (0.13 IU/ml) of 0.24 IU/ml.

Substance “human choriogonadotropin (hCG) (from UniProt P01215 25-116; P0DN86 21-165) (ligand)” gave an EC50 of cAMP accumulation (radioimmunoassay) in transiently transfected HEK 293 cells, stimulation with hCG for 1 h at 37°C; wild-type-like (wild type 0.15 IU/ml) in test [1] of 0.18 IU/ml. Also, the EC50 of cAMP accumulation (radioimmunoassay) in transiently transfected HEK 293 cells, stimulation with hCG for 1 h at 37°C; significantly right-shifted against wild type (0.15 IU/ml) in test [2] turned out to be 0.85 IU/ml.
